Reference: US20110059887A1

Biological target: Human IGF Receptor (Type I IGF receptor) (human) (UniProt P08069)
Test: microtiter plate antibody capture competition assay with IGF Type I receptor

Sequence of Human IGF Receptor (Type I IGF receptor) (human) (P08069 31-1367 limits assumed): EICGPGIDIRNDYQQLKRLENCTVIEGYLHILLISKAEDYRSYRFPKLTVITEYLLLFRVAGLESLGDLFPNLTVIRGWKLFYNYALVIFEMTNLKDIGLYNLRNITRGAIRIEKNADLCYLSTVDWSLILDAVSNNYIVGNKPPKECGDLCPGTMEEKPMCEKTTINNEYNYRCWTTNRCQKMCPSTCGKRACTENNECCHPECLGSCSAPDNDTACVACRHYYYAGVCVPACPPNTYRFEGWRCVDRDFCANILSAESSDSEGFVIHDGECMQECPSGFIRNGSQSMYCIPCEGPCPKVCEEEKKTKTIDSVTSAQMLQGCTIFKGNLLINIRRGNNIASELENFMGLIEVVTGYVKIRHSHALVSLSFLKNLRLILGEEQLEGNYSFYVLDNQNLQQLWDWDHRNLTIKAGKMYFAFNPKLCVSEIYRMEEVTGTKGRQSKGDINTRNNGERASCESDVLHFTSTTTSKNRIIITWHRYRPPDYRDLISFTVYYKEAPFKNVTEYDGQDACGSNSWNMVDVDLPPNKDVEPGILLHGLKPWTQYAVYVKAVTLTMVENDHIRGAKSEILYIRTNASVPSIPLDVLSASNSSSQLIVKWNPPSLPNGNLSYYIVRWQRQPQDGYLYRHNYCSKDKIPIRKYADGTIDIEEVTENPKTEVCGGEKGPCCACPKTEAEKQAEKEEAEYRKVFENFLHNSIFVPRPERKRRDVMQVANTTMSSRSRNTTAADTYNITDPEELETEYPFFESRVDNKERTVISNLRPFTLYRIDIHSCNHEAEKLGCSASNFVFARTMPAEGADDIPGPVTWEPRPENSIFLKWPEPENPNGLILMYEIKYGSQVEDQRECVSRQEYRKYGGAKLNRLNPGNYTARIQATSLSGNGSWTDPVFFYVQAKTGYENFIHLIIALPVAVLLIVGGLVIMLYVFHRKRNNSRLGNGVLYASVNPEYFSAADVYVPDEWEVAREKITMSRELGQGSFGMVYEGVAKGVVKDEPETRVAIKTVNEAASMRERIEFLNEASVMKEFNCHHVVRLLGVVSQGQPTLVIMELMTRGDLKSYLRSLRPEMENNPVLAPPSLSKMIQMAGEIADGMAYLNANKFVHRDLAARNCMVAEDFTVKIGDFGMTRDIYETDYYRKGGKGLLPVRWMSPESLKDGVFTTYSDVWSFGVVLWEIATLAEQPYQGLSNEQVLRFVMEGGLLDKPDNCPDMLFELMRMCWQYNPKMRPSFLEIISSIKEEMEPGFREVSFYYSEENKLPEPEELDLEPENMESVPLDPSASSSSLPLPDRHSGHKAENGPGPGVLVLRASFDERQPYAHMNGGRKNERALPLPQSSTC

An Affinity for IGFR (compared to that of human insulin) of 90 was found for “KP-insulin (SEQ. ID. NOS. 2 & 4) (ligand; other documents disagree on this pair)” in this work.
